Measured values taken from paper PMC6965642, “The novel missense mutation Met48Lys in FKBP22 changes its structure and functions” (Scientific Reports, 2020).
Changes are numbered by the printed parent chain. Names and notes keep the numbering of the source. Blank lines part the entries; values can stand above or below the molecule they belong to.

Key:
[1] = target: type X collagen (Homo sapiens) (UniProt Q03692); details: cited from earlier work
[2] = target: mouse type IV collagen (mouse); assay: SPR; BIAcore X; collagens immobilised on CM5 chips by amide coupling, FKBP22 injected; 20 °C; HBS-P (10 mM Hepes pH 7.4, 150 mM NaCl, 0.005% Surfactant P20) with 1 mM CaCl2; flow 10 µL/min; steady-state affinity model for type IV collagen - WT FKBP22, Langmuir-binding model for type X collagen - M48K FKBP22
[3] = target: T1, human recombinant type X collagen (human, UniProt Q03692 19-680); assay: as above; details: both partners purified
T1 construct: type X collagen, human, recombinant; source: 293 cells, purified as described previously
T1 sequence (Q03692 19-680): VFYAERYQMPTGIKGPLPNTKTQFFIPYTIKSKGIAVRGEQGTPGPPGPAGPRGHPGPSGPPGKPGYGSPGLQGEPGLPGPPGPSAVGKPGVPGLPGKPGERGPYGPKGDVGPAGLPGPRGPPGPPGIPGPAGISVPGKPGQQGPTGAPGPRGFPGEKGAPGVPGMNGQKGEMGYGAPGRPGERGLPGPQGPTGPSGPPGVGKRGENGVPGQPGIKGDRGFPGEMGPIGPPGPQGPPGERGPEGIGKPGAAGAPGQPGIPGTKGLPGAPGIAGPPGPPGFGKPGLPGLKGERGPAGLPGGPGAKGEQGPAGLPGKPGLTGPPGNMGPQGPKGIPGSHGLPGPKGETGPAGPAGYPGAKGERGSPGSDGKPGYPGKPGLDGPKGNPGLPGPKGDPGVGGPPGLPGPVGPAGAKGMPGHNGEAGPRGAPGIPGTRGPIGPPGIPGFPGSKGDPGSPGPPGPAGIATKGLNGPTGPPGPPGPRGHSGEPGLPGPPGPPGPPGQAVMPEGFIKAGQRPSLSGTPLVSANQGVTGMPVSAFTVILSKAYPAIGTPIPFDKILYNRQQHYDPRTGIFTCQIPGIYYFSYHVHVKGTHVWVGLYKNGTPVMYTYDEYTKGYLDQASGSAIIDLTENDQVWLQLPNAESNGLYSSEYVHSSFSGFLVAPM

type X collagen (Homo sapiens), sequence (Q03692 19-680): as above

Molecule: FKBP22 (from UniProt Q9NWM8)
Kd [1]: 43 µM

Kd [2]: 310 µM
B1: recombinant human wild type FKBP22 (FK506 Binding Protein 22 kDa) (enzyme)
chain: LIPEPEVKIEVLQKPFICHRKTKGGDLMLVHYEGYLEKDGSLFHSTHKHNNGQPIWFTLGILEALKGWDQGLKGMCVGEKRKLIIPPALGYGKEGKGKIPPESTLIFNIDLLEIRNGPRSHESFQEMDLNDDWKLSKDEVKAYLKKEFEKHGAVVNESHHDALVEDIFDKEDEDKDGFISAREFTYKHDEL

Kd [3]: 5.3 ± 4 µM
B2: recombinant human M48K FKBP22 (Met48Lys) (enzyme)
chain: B1 chain with M28K
notes: The mutation was found in a patient with kEDS; PDB 4MSP is the WT structure (parent); also called mutant FKBP22; source: E. coli BL21 (DE3), solubilised with 2 M urea, purified (Co2+-chelating column, enterokinase cleavage, Phenyl column)
